Values of other authors in patent publication US20260217837A1, “FGFR3 BINDING MOLECULES AND METHODS OF USE THEREOF” (Regeneron Pharmaceuticals, Inc., priority 2023, published 2026).

B1: MS-Pro-28: anti-FGFR3 Ig-like domain 3 antibody of WO 2002/102972 A2; SEQ ID NO: 38/39 (antibody, V domains shown)
VH: QVQLVQSGAEVKKPGSSVKVSCKASGGTFSSYAISWVRQAPGQGLEWMGGIIPIFGTANYAQKFQGRVTITADESSTAYMELSSLRSEDTAVYYCARGGGWVSHGYYYLFDLWGQGTLVTVSS
VL: DIQMTQSPSSLSASVGDRVTITCRASQGISSYLAWYQQKPGKAPKLLIYAASSLQSGVPSRFSGSGSGTDFTLTISSLQPEDFAVYYCFQYGSIPPTFGQGTKVEIKRT
B2: MS-Pro-29: anti-FGFR3 Ig-like domain 3 antibody of WO 2002/102972 A2; SEQ ID NO: 40/41 (antibody, V domains shown)
VH: QVQLVQSGAEVKKPGASVKVSCKASGYTFTSYYMHWVRQAPGQGLEWMGWINPNSGGTNYAQKFQGRVTMTRDTSISTAYMELSSLRSEDTAVYYCARTWQYSYFYYLDGGYYFDIWGQGTLVTVSS
VL: DIVLTQSPATLSLSPGERATLSCRASQSVSSSYLAWYQQKPGQAPRLLIYGASSRATGVPARFSGSGSGTDFTLTISSLEPEDFATYYCQQTNNAPVTFGQGTKVEIKRT
B3: MS-Pro-26: anti-FGFR3 Ig-like domain 3 antibody of WO 2002/102972 A2; SEQ ID NO: 36/37 (antibody, V domains shown)
VH: QVQLVQSGAEVKKPGASVKVSCKASGYTFTSYYMHWVRQAPGQGLEWMGWINPNSGGTNYAQKFQGRVTMTRDTSISTAYMELSSLRSEDTAVYYCARGYWYAYFTYINYGYFDNWGQGTLVTVSS
VL: DIALTQPASVSGSPGQSITISCTGTSSDVGGYNYVSWYQQHPGKAPKLMIYDVSNRPSGVSNRFSGSKSGNTASLTISGLQAEDEADYYCQSYDNNSDWFGGGTKLTVLGQ
B4: FGA0007: anti-FGFR3 (S249C mutant) antibody of WO 2021/010326 A1; SEQ ID NO: 88/89 (antibody, V domains shown)
VH: QSVEESGGRLVTPGTPLTLTCTVSGFSLSSYPMSWVRQAPGKGLEWIGIISSSGRTYYASWAKGRFTISKASSTTAALKMTSLTTEDTATYFCARGGVYKYDDYGDYVLNLWGRGTLVTVSS
VL: AIEMTQTPFSVSAAVGGTVTINCQASENIYSNLAWYQQKPGQPPKLLIYAASYLASGVPSRFKGSGSGTDYTLTISGVQCADAATYYCQCTLYSSTYGVAFGGGTEVVVK
B5: MS-Pro-2: anti-FGFR3 Ig-like domain 2 antibody of WO 2002/102972 A2; SEQ ID NO: 24/25 (antibody, V domains shown)
VH: QVQLVQSGAEVKKPGASVKVSCKASGYTFTSYYMHWVRQAPGQGLEWMGWINPNSGGTNYAQKFQGRVTMTRDTSISTAYMELSSLRSEDTAVYYCARDFLGYEFDYWGQGTLVTVSS
VL: DIELTQPPSVSVAPGQTARISCSGDALGDKYASWYQQKPGQAPVLVIYDDSDRPSGIPERFSGSNSGNTATLTISGTQAEDEADYYCQSYDYSADYVFGGGTKLTVLGQ
B6: FGA0005: anti-FGFR3 (S249C mutant) antibody of WO 2021/010326 A1; SEQ ID NO: 86/87 (antibody, V domains shown)
VH: QSLEESGGRLVTPGTPLTLTCTASGFSLSTYWICWVRQAPGEGLEWIGYISSSGNTYYASWAKGRFTISKTSSTTVDLKMTSLTTEDTATYFCGGHNSDYITGWALDPWGPGTLVTVSS
VL: AAVLTQTASPMSAAVGGTVTINCQSSKSVYRDKWLSWFQQKPGQPPKLLIYGASNLASGVSSRFKGSGSGTQFTLTISDVQCDDAATYYCLGGYSDNSEDAFGGGTEVVVK

Tested on: FGFR3
Conditions: Exemplary FGFR3 D3 binding sequences; antibodies of cited PCT publications

Molecule	Activity
B1	Antagonistic
B2	Antagonistic
B3	Antagonistic

Same assay, conditions: Table T-1, exemplary FGFR3 parental antibodies of cited publications

Molecule	Activity
B1	Antagonistic
B2	Antagonistic
B4	Antagonistic
B5	Antagonistic
B3	Antagonistic
B6	Antagonistic
